One molecule from publication PMC6056640, “Ghrelin Through GHSR1a and OX1R Heterodimers Reveals a Gαs–cAMP-cAMP Response Element Binding Protein Signaling Pathway in Vitro” (Frontiers in Molecular Neuroscience, 2018) can be followed below.

This experiment has as its target T1, OX1R-Rluc (human, UniProt O43613 1-425).
T1 construct: Orexin type 1 receptor (OX1R), human cDNA (pcDNA3.1-OX1R, cDNA Resource Centre); construct made 'as described'; BRET donor; also called orexin type 1 receptor; Orexin 1 receptor; source: HEK293, transiently transfected, in living cells; not shown: Rluc, C-terminal, kept
T1 sequence (looked up): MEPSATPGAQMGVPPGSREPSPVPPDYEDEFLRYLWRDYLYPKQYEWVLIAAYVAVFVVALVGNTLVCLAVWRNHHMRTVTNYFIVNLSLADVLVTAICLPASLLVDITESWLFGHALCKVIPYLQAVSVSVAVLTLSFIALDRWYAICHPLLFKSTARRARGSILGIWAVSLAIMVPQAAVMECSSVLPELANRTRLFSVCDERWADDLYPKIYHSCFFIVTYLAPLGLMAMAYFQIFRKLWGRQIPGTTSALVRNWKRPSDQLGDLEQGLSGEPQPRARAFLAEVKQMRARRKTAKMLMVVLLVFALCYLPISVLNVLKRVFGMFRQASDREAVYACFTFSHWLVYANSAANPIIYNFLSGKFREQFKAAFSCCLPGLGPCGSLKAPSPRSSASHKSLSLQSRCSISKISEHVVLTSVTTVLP
The experiment is described as follows: FRET or BRET; BRET in living HEK293 cells; donor (Rluc fusion) and acceptor (EYFP fusion) plasmids 1:3; coelenterazine h 5 μM; also after ghrelin (100 nM) and/or orexin-A (100 nM) or vehicle for 10 min. Conditions: partners not purified. A general note: Bioluminescence resonance energy transfer reports proximity on the nanometre scale.

B1: GHSR1a-EYFP (receptor, UniProt Q92847 1-366, looked up)
chain: MWNATPSEEPGFNLTLADLDWDASPGNDSLGDELLQLFPAPLLAGVTATCVALFVVGIAGNLLTMLVVSRFRELRTTTNLYLSSMAFSDLLIFLCMPLDLVRLWQYRPWNFGDLLCKLFQFVSESCTYATVLTITALSVERYFAICFPLRAKVVVTKGRVKLVIFVIWAVAFCSAGPIFVLVGVEHENGTDPWDTNECRPTEFAVRSGLLTVMVWVSSIFFFLPVFCLTVLYSLIGRKLWRRRRGDAVVGASLRDQNHKQTVKMLAVVVFAFILCWLPFHVGRYLFSKSFEPGSLEIAQISQYCNLVSFVLFYLSAAINPILYNIMSKKYRVAVFRLLGFEPFSQRKLSTLKDESSRAWTESSINT
notes: Growth hormone secretagogue receptor 1α (GHSR1a); ORF inserted into the EYFP-N1 vector; cDNA from pcDNA3.1-GHSR1a (cDNA Resource Centre); BRET and FRET acceptor; The FRET methods call it EYFP-GHSR1a, but the construction paragraph puts EYFP on the C-terminus; also called growth hormone secretagogue receptor 1α; EYFP-GHSR1a; source: HEK293, transiently transfected, in living cells; not shown: …
For the molecule B1, the mBRET ratio is 190.
